How the values were obtained:
[1] = Pharmacokinetics of CR011-vcMMAE after intravenous administration (sandwich ELISA of antibody in serum); type: in vivo, athymic mice; conditions: for A (pre-exponential constant for alpha phase) / AUC (total area under the curve from 0 to infinity) / Alpha (exponential rate constant for alpha phase) / Alpha-Half Life / B (pre-exponential constant for beta phase) / Beta (exponential rate constant for beta phase) / Beta-Half Life / Cl (total or systemic clearance) / MRT (mean residence time) / Volume (volume of central compartment) / Vss (steady-state volume of distribution): athymic mice, i.v.
Experimental: The concentration-time pattern was bi-phasic. […] Nevertheless, the compound disappeared very slowly from the peripheral blood (T1/2β=10.3 days) with serum concentrations of […] and 10 μg/mL remaining in the blood for 6 weeks after dosing.

[2] = test system: CG56972-expressing cancer cell lines; assay: Growth of CG56972-expressing cells with naked CR011; type: cell-based, human; conditions: used directly, unconjugated
[3] = test system: Lymphoma or leukemia cell lines; assay: Clonogenic assay (methylcellulose) with 1.15.1-AE, lymphoma and leukemia panel; type: cell-based, human
Experimental: Lymphoma or leukemia cell lines were mixed with methylcellulose base media (R&D Systems, USA) and in various concentrations of unconjugated and Auristatin E-conjugated 1.15.1 antibody before plating onto 6-well tissue culture plates (Becton Dickinson, Franklin Lakes, N.J., USA). […] Plates were incubated at 37° C. and examined daily. On days 14-18, colonies on the plates were counted.

[4] = test system: CG56972-expressing cancer cells; assay: Growth inhibition by CR011 with saporin-conjugated secondary antibody; type: cell-based, human; conditions: data not shown

CR011-vcMMAE: CR011 conjugated to monomethyl auristatin E through a protease cleavable valine-citrulline linker; approx. 4 drugs per antibody
T1/2β ([1]; 1 or 10 mg/kg intravenously): 10.3 days | A (pre-exponential constant for alpha phase) ([1]; 1 mg/kg): 8.97 µg/mL | AUC (total area under the curve from 0 to infinity) ([1]; 1 mg/kg): 3712 µg·h/mL | Alpha (exponential rate constant for alpha phase) ([1]; 1 mg/kg): 0.179 h⁻¹ | Alpha-Half Life ([1]; 1 mg/kg): 0.162 days | B (pre-exponential constant for beta phase) ([1]; 1 mg/kg): 9.82 µg/mL | Beta (exponential rate constant for beta phase) ([1]; 1 mg/kg): 0.00269 h⁻¹ | Beta-Half Life ([1]; 1 mg/kg): 10.8 days | Cl (total or systemic clearance) ([1]; 1 mg/kg): 6.46 mL/day/kg | MRT (mean residence time) ([1]; 1 mg/kg): 15.3 days | Volume (volume of central compartment) ([1]; 1 mg/kg): 0.0532 L/kg | Vss (steady-state volume of distribution) ([1]; 1 mg/kg): 0.099 L/kg | A (pre-exponential constant for alpha phase) ([1]; 10 mg/kg): 74.6 µg/mL | AUC (total area under the curve from 0 to infinity) ([1]; 10 mg/kg): 41210 µg·h/mL | Alpha (exponential rate constant for alpha phase) ([1]; 10 mg/kg): 0.0812 h⁻¹ | Alpha-Half Life ([1]; 10 mg/kg): 0.3555 days | B (pre-exponential constant for beta phase) ([1]; 10 mg/kg): 113 µg/mL | Beta (exponential rate constant for beta phase) ([1]; 10 mg/kg): 0.00281 h⁻¹ | Beta-Half Life ([1]; 10 mg/kg): 10.3 days | Cl (total or systemic clearance) ([1]; 10 mg/kg): 5.83 mL/day/kg | MRT (mean residence time) ([1]; 10 mg/kg): 14.5 days | Volume (volume of central compartment) ([1]; 10 mg/kg): 0.0532 L/kg | Vss (steady-state volume of distribution) ([1]; 10 mg/kg): 0.0845 L/kg | volume of distribution at steady state (Vss) ([1]; in words): very low

CR011: fully human monoclonal antibody that specifically binds to GPNMB; VH SEQ ID NO: 20, VL SEQ ID NO: 29
effect of naked antibody on CG56972 expressing cells (in words) [2]: did not inhibit the growth | effect of naked antibody on CG56972 expressing cells (in words) ([2]; listed as CR011 IgG2 mAb): no effect | effect on growth of all antigen positive hematopoietic cell lines (in words) [3]: no effect on growth | growth inhibition with saporin-conjugated secondary antibody (in words) [4]: could specifically inhibit the growth

Reference: patent publication US20130244255A1, “ANTIBODIES DIRECTED TO GPNMB AND USES THEREOF” (priority 2006, published 2013)
